Laboratory results: publication doi:10.1101/2024.09.03.610921 (bioRxiv, 2024)

Biological target: recombinant human histone H3.1 (human, UniProt P68431 1-136)
Assay: pull-down

- binding result: binds
B1: RAGE^124-341-His-FLAG (extracellular region of RAGE lacking the V domain) (domain or fragment)
chain: PEIVDSASELTAGVPNKVGTCVSEGSYPAGTLSWHLDGKPLVPNEKGVSVKEQTRRHPETGLFTLQSELMVTPARGGDPRPTFSCSFSPGLPRHRALRTAPIQPRVWEPVPLEEVQLVVEPEGGAVAPGGTVTLTCEVPAQPSPQIHWMKDGVPLPLPPSPVLILPEIGPQDQGTYSCVATHSSHGPQESRAVSISIIEPGEEGPTAGSVGGSGLGTL
